According to paper PMC9140564 (International Journal of Molecular Sciences, 2022):

T1: pre-S1 oligopeptide of amino acids 25-38 (Hepatitis B virus, strain  …)
T1 construct: pre-S1 region of the hepatitis B virus large surface protein, amino acids 25-38; One of several oligopeptides spanning pre-S1 21-47; also called peptide containing amino acids 25–38; source: synthetic peptide
T1 chain: FPDHQLDPAFGANS

B1: anti-pre-S1 mouse monoclonal antibody (clone N-term-7-21-5) (antibody, V domains shown)
VH: DVQLQESGPGLVKPSQSLSLTCTVTGYSITSDYAWNWIRQFPGNKLEWMGYIRYSGTTNYNPSLKSRISITRDTSKNQFFLQLNSVTTEDTATYYCARGGTGLTYWGQGTLVTVSA
VL: NIVMTQSPKSMSMSLGERVTLTCKASENVGTYVSWYQQKPEQSPKLLIYGASNRNTGVPDRFTGSGPATDFTLTISSVQAEDLADYLCGQTYNYPFTFGAGTKLELK
notes: heavy chain CDR1; heavy chain CDR2; heavy chain CDR3; kappa light chain CDR1; kappa light chain CDR2; kappa light chain CDR3; Only the six CDRs are printed; Coating antibody of the sandwich ELISA; also called pre-S1 antibody; LHBS-specific antibody; source: mouse hybridoma, ascites fluid, purified using IgG beads
B2: anti-pre-S2 mouse monoclonal antibody (antibody, V domains shown)
VH: QVQLQQPGTELVKPGTSVKLSCKASGYTFTSYWMHWVKLRPGQGFEWIGEINPSNGITNYNEKFKRKATLTVDKSSTTAYMQLSSLTFEDSAVYYCTIGYDYGSNYEAMDFWGQGTSVTVSS
VL: DIVMTQAAFSNPVTLGTSASMSCRSSKSLLHSNGITYLYWYLQKPGQSPQLLIYQMSNLASGVPDRFSSGGSGTDFTLRISRVEAEDVGVYYCAQNLELPWTFGGGTKLEIK
notes: heavy chain CDR1; heavy chain CDR2; heavy chain CDR3; kappa light chain CDR1; kappa light chain CDR2; kappa light chain CDR3; Only the six CDRs are printed; Aliquots were conjugated with biotin for use as detection antibody in the sandwich ELISA; also called pre-S2 antibody; anti-pre-S2 region antibody; source: mouse hybridoma, ascites fluid, purified using IgG beads

How the values were obtained:
[1] = biological target: T2, recombinant pre-S region protein of the HBV large surface protein (LHBS) (Hepatitis B virus, strain ; …, UniProt P03141); assay: ELISA; antigen protein or peptide coated on the plate (0.1 ng/uL, or 10-fold serial dilutions), 4 °C overnight; purified monoclonal antibody added (serial dilutions or 1:2000 in PBST); PBST pH 7.4 washes; anti-mouse IgG-HRP, chemiluminescence read-out; conditions: both partners purified
T2 construct: also called pre-S region E. coli recombinant protein; source: E. coli BL21 (pET21b, IPTG 0.2 mM), purified
T2 sequence (P03141 whole entry, looked up): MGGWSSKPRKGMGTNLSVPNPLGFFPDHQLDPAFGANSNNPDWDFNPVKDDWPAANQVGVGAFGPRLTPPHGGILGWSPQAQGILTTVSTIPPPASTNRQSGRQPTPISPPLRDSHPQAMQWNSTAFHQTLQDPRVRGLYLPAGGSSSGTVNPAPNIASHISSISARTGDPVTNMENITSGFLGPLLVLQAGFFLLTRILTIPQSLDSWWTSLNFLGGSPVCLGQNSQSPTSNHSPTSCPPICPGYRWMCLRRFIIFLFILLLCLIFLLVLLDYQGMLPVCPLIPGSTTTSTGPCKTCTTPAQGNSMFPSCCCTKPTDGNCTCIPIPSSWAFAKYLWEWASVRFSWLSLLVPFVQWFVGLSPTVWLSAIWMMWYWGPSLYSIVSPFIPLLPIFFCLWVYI

[2] = biological target: T1, pre-S1 oligopeptide of amino acids 25-38; assay: as above; conditions: both partners purified
[3] = biological target: T3, large HBV surface protein (LHBS), full-length, expressed in 293T cells (Hepatitis B virus, strain ; …, UniProt P03141); assay: ELISA; lysates of 293T cells transfected with LHBS genes with partial deletions, tested for recognition by the monoclonal antibody; conditions: one partner purified
T3 construct: hepatitis B virus large surface protein: pre-S1 (119 a.a.), pre-S2 (55 a.a.) and S (227 a.a.) regions as printed; also called the full-length; source: 293T cells, transfected, in lysate
T3 sequence (P03141 whole entry): as the sequence (P03141 whole entry, looked up) above

Row | Binder | binding result [1] | binding result [2] | binding result [3]
1 | B1 | binds | binds | 
2 | B2 | binds |  | binds
